{"source": "patent US20240392001A1", "about": "(University of Texas, published 2024)", "binders": {"B1": {"name": "NeuB2-29 (antibody, V domains shown)", "VH": "QVQLVETGGGVVQPGRSLRLSCAASGFTFSDYAMHWVRQAPGKGLEWVTLISYDGSQKYYADSVKGRFTISRDDSKNTVDLQMNSLKAEDTAVYYCAKFPSLNDNVGFDVWGQGTMVTVSS", "VL": "QSVLTQPPSVSGAPRERVTISCSGSTSNIENNAVNWYQQLPGKAPKLLIYYDDLVPSGVSDRFSGSKSGTSASLAISGLQSGDEAYYYCAVWDDSLNGPVFGGGTKVTVL", "notes": "also called Ab29; NewuB2-29"}, "B2": {"name": "NeuB2-37 (antibody, V domains shown)", "VH": "QVQLMQSGAEVKKPGSSVKVSCKASGGTFSSYAISWVRQAPGQGLEWMGGIIPIFGTANYAQKFQGRVTITADESTSTAYMELSSLRSEDTAVYYCARGNHVLRFLEWLPNWFDPWGQGTLVTVSS", "VL": "not shown", "notes": "also called Ab37; 37-HC/37-LC"}, "B3": {"name": "NeuB2-80 (antibody, V domains shown)", "VH": "QVQLVQSGAEVKKPGASVKVSCKASGYTFTSYGISWVRQAPGQGLEWMGWISAYNGNTNYAQKLQGRVTMTTDTSTSTAYMELRSLRSDDTAVYYCARDGGGGYFDYWGQGTLVTVSS", "VL": "QAVVTQPPSASGTPGQRITISCSGSSSNIGKNIVNWYQQVPGAAPKLLIYNNSQRPSGVPDRFSGSKSGTSASLAISGLQSEDEADYYCAAWDDSLRSWLFGGGTKVTVL", "notes": "Human antibody from a phage library; also called 80-HC/80-LC"}, "B4": {"name": "NeuB2-9 (antibody, V domains shown)", "VH": "QVQLVQSGAEVKKPGASVKVSCKASGYTFTSYAMHWVRQAPGQRLEWMGWINAGNGNTKYSQKFQGRVTITRDTSASTAYMELSSLRSEDTAVYYCARDFMGYCSSTSCYGVTGAFDIWGQGTMVTVSS", "VL": "not shown", "notes": "Human antibody from a phage library; also called 9-HC/9-LC"}, "B5": {"name": "NeuB2-128 (antibody, V domains shown)", "VH": "QVQLQQSGAEVKKPGSSVKVSCKASGGTFSSYAISWVRQAPGQGLEWMGGIIPIFGTANYTQKFQGRVTITADESTSTAYMELSSLRSEDTAVYYCARGPSGSPYGMDVWGQGTTVIVSS", "VL": "not shown", "notes": "Human antibody from a phage library; also called 128-HC/128-LC"}, "B6": {"name": "NeuB2-40 (antibody, V domains shown)", "VH": "QVQLVQSGAEVKKPGASVKVSCKASGYTFTNYGISWVRQAPGQGLEWMGWISGDAGDTKFAQKFQGRVTMTTDTSTTTTYMELRSLRSDDTAVYYCARDGEYIPMFRGFDNYYGLDVWGQGTTVTVSS", "VL": "QPVLTQPPSVSEAPRQRVTISCSGSSSNIGKNAVNWYQQFPGKAPKLLIYYDDLLPSGVSDRFSGSRSGTSASLAISGLQSEDEADYYCAAWDDRLKGYVFGTGTQLTVL", "notes": "also called Ab40; 40-HC/40-LC"}, "B7": {"name": "NeuB2-8 (antibody, V domains shown)", "VH": "QLQLQESGPGLVKPSQTLSLTCAISGGNVSSKSAAWNWIRQSPSRGLEWLGRTYYRSKWYNDYAVSVKSRITINPDTSKNQFSLQLKSVTPEDTAVYYCARSLGEGWFPYFYGMDVWGQGTTVTVSS", "VL": "QSVLTQPASVSGSPGQSITISCTGTNRDVGGYDYVSWYQQHPGKAPKLMIYGVSNRPSGISNRFSGSKSGSTASLTISGLQVEDEAAYYCSSYTASRTVVFGGGTKVTVL", "notes": "Human antibody from a phage library; also called 8-HC/8-LC"}, "B8": {"name": "NeuB2-55 (antibody, V domains shown)", "VH": "EVQLVQSGAEVKKPGSSVKVSCKASGGTFSSYAISWVRQAPGQGLEWMGGIIPIFGTANYAQKFQGRVTITADESTSTAYMELSSLRSEDTAVYYCARGVDQVDYWGQGTLVTVSS", "VL": "QAVVTQPASVSGSPGQSITISCTGTSSDVGGYNYVSWYQQHPGKAPKLMIYDVSNRPSGVSNRFSGSKSGNTASLTISGLQAEDEADYYCSSYTSSSTPYVFGTGTKVTVL", "notes": "also called Ab55; 55-HC/55-LC"}, "B9": {"name": "NeuB2-93 (antibody, V domains shown)", "VH": "QVQLMQSGAEVKKPGSSVKVSCKASGGRFSSNVMSWVRQAPGQGLEWMGGIIPIFGTPKYAQKFQGRVTITADKSTSTAYMELSSLRSEDTAVYYCASGSTPFDAFDIWGQGTMVTVSS", "VL": "B8 VL with A2P, V4L, D52E, Y100W, T104G", "notes": "also called Ab93; 93-HC/93-LC"}, "B10": {"name": "NeuB2-110 (antibody, V domains shown)", "VH": "QVQLVESGGGLVKPGGSLRLSCGISGFTFSDYYMSWIRQAPGKGLEWVSFIGTSGSTIYYADSVKGRFTISRDNANNSLFLQMNSLTVEDTAVYYCAREATSGTYFDYWGQGTLVSVSS", "VL": "B8 VL with D52E, S54T", "notes": "Human antibody from a phage library; also called 110-HC/110-LC"}, "B11": {"name": "NeuB2-60 (antibody, V domains shown)", "VH": "QVQLQESGPGLVKPSGTLSLTCAVSGGSITSSNWWSWVRQPPGKGLEWIGDISHSGSTNYNPSLKGRVTMSVDRSKNQFFLKLSSVTAADTAMYYCARAFHGMDVWGQGTTVTVSS", "VL": "QSVLTQPPSVSEAPRQRVTISCSGSSSNIANNAVNWYQQLPGKAPKLLIYYDDLLASGVSDRFSGSRSGTSAALAISGLQSEDEADYYCATWDDDLNGPIFGGGTKVTVL", "notes": "also called Ab60; 60-HC/60-LC"}, "B12": {"name": "NeuB2-13 (antibody, V domains shown)", "VH": "QVQLVQSGAEVKKPGASVKVSCKASGYTFTSYYMHWVRQAPGQGLEWMGIINPSGGSTSYAQKFQGRVTMTRDTSTSTVYMELSSLRSEDTAVYYCAREDWGPFDYWGQGTTVTVSS", "VL": "DIQMTQSPSSLSASVGDRVTITCRASQSISNFVNWYQQKPGEVPKLLIYGASSLQSGVPSRFSGSGSGTDFTLTISSLQPEDFATYYCQQGYSVPLTFGGGTKVEIK", "notes": "Human antibody from a phage library; also called 13-HC/13-LC"}, "B13": {"name": "NeuB2-19 (antibody, V domains shown)", "VH": "QVQLVESGGGVVRPGGSLRLSCAASGFTFDDYGMSWVRQAPGKGLEWVSGINWNGGSTGYADSVKGRFTISRDNAKNSLYLQMNSLRAEDTALYYCAREGDGAFDIWGQGTLVTVSS", "VL": "QAVVTQPPSASGTPGQRVTISCSGSGSNIRSNGVTWYQQFPGTAPKLLIYDNNQRPSGVPGRFSGSKSGTSGSLAISGLQSEDEADYYCAAWDDNLNAWVFGAGTQLTVL", "notes": "Human antibody from a phage library; also called 19-HC/19-LC"}}, "note": "Changes are numbered by the printed parent chain.", "data": [{"target": "T1, LILRB2 expressed on the surface of HEK293T cells (UniProt Q8N423 22-597, limits assumed)", "T1 construct": "whole, on cells; also called HEK293T cells that express LILRB2", "T1 sequence (Q8N423 22-597 limits assumed)": "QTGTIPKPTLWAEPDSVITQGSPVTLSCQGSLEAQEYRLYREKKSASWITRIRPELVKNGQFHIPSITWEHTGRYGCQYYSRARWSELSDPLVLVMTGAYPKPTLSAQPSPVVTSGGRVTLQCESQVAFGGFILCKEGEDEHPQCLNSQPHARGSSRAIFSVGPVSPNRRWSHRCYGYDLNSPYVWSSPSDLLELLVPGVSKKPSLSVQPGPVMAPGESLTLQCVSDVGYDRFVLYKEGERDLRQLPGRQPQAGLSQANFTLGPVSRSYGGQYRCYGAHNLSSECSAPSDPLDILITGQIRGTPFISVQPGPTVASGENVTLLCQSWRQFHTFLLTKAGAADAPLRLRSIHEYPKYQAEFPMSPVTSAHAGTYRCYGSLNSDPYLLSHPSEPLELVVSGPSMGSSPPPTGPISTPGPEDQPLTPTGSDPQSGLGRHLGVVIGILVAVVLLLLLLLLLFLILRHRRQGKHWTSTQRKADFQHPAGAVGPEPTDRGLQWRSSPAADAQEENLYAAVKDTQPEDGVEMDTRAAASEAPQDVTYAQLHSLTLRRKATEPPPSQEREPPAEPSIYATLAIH", "assay": "flow cytometry on HEK293T cells expressing LILRB2, MFI fold over control; sheet also prints 95%CI=0.19-0.31 µg/mL", "units": {"EC50": "µg/mL"}, "values": [{"binder": "B1", "EC50": 0.24}]}, {"target": "T2, LILRB2 (UniProt Q8N423 22-460, limits assumed)", "T2 construct": "Panning used recombinantly expressed LILRB2-His; also called Leukocyte Immunoglobulin-like Receptor subfamily B member 2; LILRB2-His", "T2 sequence (Q8N423 22-460 limits assumed)": "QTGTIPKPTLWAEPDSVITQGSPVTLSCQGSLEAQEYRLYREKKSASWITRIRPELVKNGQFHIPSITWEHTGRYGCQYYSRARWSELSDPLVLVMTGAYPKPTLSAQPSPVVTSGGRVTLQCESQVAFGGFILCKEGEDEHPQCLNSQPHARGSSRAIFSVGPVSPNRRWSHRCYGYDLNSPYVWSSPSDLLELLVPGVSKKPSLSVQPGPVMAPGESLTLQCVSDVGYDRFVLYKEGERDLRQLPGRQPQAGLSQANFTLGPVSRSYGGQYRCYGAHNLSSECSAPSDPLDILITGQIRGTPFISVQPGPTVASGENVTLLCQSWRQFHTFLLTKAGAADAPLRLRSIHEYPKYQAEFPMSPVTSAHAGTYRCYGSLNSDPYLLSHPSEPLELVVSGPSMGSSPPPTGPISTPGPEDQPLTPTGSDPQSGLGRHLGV", "assay": "ELISA of phage display clone on LILRB2", "values": [{"binder": "B1", "OD450 in ELISA assay": 0.819}, {"binder": "B2", "OD450 in ELISA assay": 0.417}, {"binder": "B3", "OD450 in ELISA assay": 0.64}, {"binder": "B4", "OD450 in ELISA assay": 0.515}, {"binder": "B5", "OD450 in ELISA assay": 0.446}, {"binder": "B6", "OD450 in ELISA assay": 0.276}, {"binder": "B7", "OD450 in ELISA assay": 0.548}, {"binder": "B8", "OD450 in ELISA assay": 0.886}, {"binder": "B9", "OD450 in ELISA assay": 0.543}, {"binder": "B10", "OD450 in ELISA assay": 0.972}, {"binder": "B11", "OD450 in ELISA assay": 0.744}, {"binder": "B12", "OD450 in ELISA assay": 0.552}, {"binder": "B13", "OD450 in ELISA assay": 0.663}]}, {"target": "T3, LILRB2-chimeric reporter receptor on reporter cells (UniProt Q8N423 22-460)", "T3 sequence (Q8N423 22-460, change not shown)": "as the sequence (Q8N423 22-460 limits assumed) above", "assay": "cell-based or functional assay", "units": {"IC50 (M); blocking of PS-LILRB2 interaction": "M"}, "values": [{"binder": "B1", "IC50 (M); blocking of PS-LILRB2 interaction": "1.42e-10"}, {"binder": "B2", "IC50 (M); blocking of PS-LILRB2 interaction": "2.93e-10"}, {"binder": "B6", "IC50 (M); blocking of PS-LILRB2 interaction": "3.54e-10"}, {"binder": "B8", "IC50 (M); blocking of PS-LILRB2 interaction": "3.35e-10"}, {"binder": "B9", "IC50 (M); blocking of PS-LILRB2 interaction": "4.45e-10"}, {"binder": "B11", "IC50 (M); blocking of PS-LILRB2 interaction": "3.21e-10"}]}, {"target": "T2, LILRB2", "assay": "BLI, Octet Red96", "experimental": "Kinetic binding parameters (KD, kₒₙ, and koff) were determined using Octet Red96 instrument (ForteBio; Fremont, CA).", "units": {"Kd": "nM", "koff": "s⁻¹", "kon": "M⁻¹ s⁻¹"}, "values": [{"binder": "B1", "Kd": 9, "koff": 0.00151, "kon": 168000}, {"binder": "B2", "Kd": 8.45, "koff": 0.0004, "kon": 47400}, {"binder": "B6", "Kd": 19.2, "koff": 0.00471, "kon": 245000}, {"binder": "B8", "Kd": 56, "koff": 0.00723, "kon": 129000}, {"binder": "B9", "Kd": 83.9, "koff": 0.0103, "kon": 123000}, {"binder": "B11", "Kd": 24.1, "koff": 0.00512, "kon": 212000}]}, {"target": "T4, recombinantly produced LILRB2 extracellular domain (ECD) protein (UniProt Q8N423 22-460, limits assumed)", "T4 construct": "extracellular domain; A LILRB2-His protein was used for panning; also called plate-coated LILRB2; LILRB2 ECD", "T4 sequence (Q8N423 22-460 limits assumed)": "as above", "assay": "ELISA, plate-coated LILRB2, anti-human F(ab)2 HRP detection", "experimental": "Antibody binding affinity to LILRB2 were measured by ELISA. Increasing concentrations of purified LILRB2 antibodies were incubated with plate-coated LILRB2. The bound antibody was detected by anti-human F(ab)2 HRP, and the signals were quantified as OD₄₅₀ values. EC₅₀ values (Table 5) were calculated using non-linear curve fitting function Sigmoidal dose-response (variable slope) in GraphPad Prism.", "units": {"EC50": "nM"}, "values": [{"binder": "B1", "EC50": 0.137}, {"binder": "B2", "EC50": 0.658}, {"binder": "B6", "EC50": 0.0664}, {"binder": "B8", "EC50": 0.175}, {"binder": "B9", "EC50": 0.159}, {"binder": "B11", "EC50": 0.161}]}, {"target": "T3, LILRB2-chimeric reporter receptor on …", "assay": "cell-based or functional assay", "remark": "another data set of the same source", "units": {"IC50 (M); GFP signal of LILRB2-chimeric reporter cells on plate-coated oAβ": "M"}, "values": [{"binder": "B1", "IC50 (M); GFP signal of LILRB2-chimeric reporter cells on plate-coated oAβ": "3.44e-10"}, {"binder": "B2", "IC50 (M); GFP signal of LILRB2-chimeric reporter cells on plate-coated oAβ": "8.62e-10"}, {"binder": "B6", "IC50 (M); GFP signal of LILRB2-chimeric reporter cells on plate-coated oAβ": "3.6e-09"}, {"binder": "B8", "IC50 (M); GFP signal of LILRB2-chimeric reporter cells on plate-coated oAβ": "1.89e-09"}, {"binder": "B9", "IC50 (M); GFP signal of LILRB2-chimeric reporter cells on plate-coated oAβ": "3.81e-09"}, {"binder": "B11", "IC50 (M); GFP signal of LILRB2-chimeric reporter cells on plate-coated oAβ": "9.82e-10"}]}]}
